From paper PMC314469, “Protein Interaction Networks by Proteome Peptide Scanning” (PLoS Biology, 2004)

T1: amphyphisin SH3 (AMPH_HUMAN), P49418
T1 chain: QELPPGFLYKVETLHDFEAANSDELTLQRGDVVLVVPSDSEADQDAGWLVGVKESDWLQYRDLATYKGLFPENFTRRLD


What was measured:
[1] = molecular target: T1, amphyphisin SH3 (AMPH_HUMAN), P49418; assay: SPOT array
[2] = molecular target: endophilin SH3 (SH3G2_HUMAN), Q99962; assay: SPOT array

| Binder | normalised SPOT signal, Boehringer light units (BLU); mean over the file's lines of this peptide [1] | normalised SPOT signal, Boehringer light units (BLU); mean over the file's lines of this peptide [2] |
| --- | --- | --- |
| MHNFPLRPPPPPPP [Q96HR8 430-444] | 68.7 | 213 |
| LVVDPRRPFRKLNA [Q9H4M9 114-127] | 2940 | 179 |
| MLDMFKRPTDPPEY [Q13423 581-594] | 34.5 | 56.5 |
| MLLRLARPAKLSEL [Q92876 108-121] | 346 | 342 |
| MAGLPFRPPWGSLS [Q8WUS6 527-541] | 73 | 4340 |
| LYRGLSRPIRRTTQ [Q9H455 29-42] | 789 | 234 |
| MKRKPGRPRRSPPS [Q9UPS6 353-366] | 138 | 989 |
| LWRRFGRPAKSSTP [Q9NS62 435-448] | 105 | 114 |
| AQARLKRPLKSLDG [Q9NXU2 68-81] | 117 | 109 |
| MENNLRRPNLEAFN [P08700 68-81] | 27.1 | 14.8 |
| MKDIPKRPFSQSLS [Q9Y6E0 364-377] | 99.5 | 2820 |
| MLLLPPRPPHPRSS [Q9NPP7 87-101] | 3000 | 11500 |
| AQQLLKRPRGPSPL [Q9Y2K2 611-624] | 55.3 | 75.7 |
| LYLRLKRPKPERDL [P11230 356-369] | 42.9 | 70.6 |
| LWPPLYRPRRDAFE [Q13635 1311-1324] | 1260 | 3920 |
| APVPLLRPHRPSGP [O15450 763-776] | 1350 | 704 |
| LVPVPARPPLTRGQ [Q96EY9 124-138] | 2950 | 3430 |
| LYGLLQRPVRLALG [Q9BZJ7 289-302] | 1270 | 1110 |
| LVSIPERPLRPPSE [Q9Y2W3 70-83] | 3540 | 310 |
| MAQSIYRPSKNLDK [Q13573 443-456] | 153 | 185 |
| MKKGPTRPPRPSTP [Q9Y4E6 583-597] | 10700 | 17300 |

Other lines, results leading:

| normalised SPOT signal, Boehringer light units (BLU); mean over the file's lines of this peptide [1] | normalised SPOT signal, Boehringer light units (BLU); mean over the file's lines of this peptide [2] | Binder |
| --- | --- | --- |
| 3170 | 1000 | LWRQPRRPIRIQQR [Q08493 32-45] |
| 2650 | 5190 | MLLRPRRPPPLAPP [O75833 1-14] |
| 295 | 236 | MDGFLSRPSRPLLQ [Q9P0N2 51-64] |
| 112 | 96.8 | LVSRLRRPVSEVSG [Q96Q82 70-83] |
| 25300 | 1160 | AQPQPLRPPRRVSS [Q99743 799-812] |
| 1010 | 1910 | MKPPPRRPPGNISW [Q02246 907-921] |
| 27.1 | 34.5 | MAASLKRPDSGATG [P20849 777-790] |
| 33.7 | 551 | MLANPRRPIAQWHS [O00445 360-373] |
| 18.6 | 120 | MFEDPTRPGKQQQL [Q14209 197-210] |
| 57.7 | 214 | MLAMPRRPDPVFLN [Q13808 54-67] |
| 27.3 | 163 | MKVHIKRPEMTSSS [Q9GZZ2 864-877] |
| 38.2 | 54.5 | MFQALKRPDDTAFQ [O94901 782-795] |
| 180 | 158 | LYWLLRRPSGVVLS [Q96DN1 10-23] |
| 88.8 | 627 | MSRVFKRPFSEPSA [Q9NW15 466-479] |
| 408 | 48 | LVNTLKRPKRPPLR [Q9Y2E4 57-70] |
| 150 | 2850 | MKTSPRRPLILKRR [Q08050 1-14] |
| 39 | 157 | LYRFPGKPPTYVTD [Q9NU18 93-107] |
| 108 | 122 | MLANPRRPIAQWHT [P21579 394-407] |
| 45.4 | 125 | AAQPPQKPPASYFA [O15399 995-1009] |
| 14500 | 1100 | MEHSPQRPPRTEPT [Q96M26 524-538] |
| 18 | 978 | MDFSPPRPPYPSYP [Q14934 712-726] |
